Laboratory results reported in patent US20230329283A1 (priority 2021, published 2023).
Read-outs that look alike come from different tables or passages of the source.

Tested on: rabbit red blood cells
Settings: 37° C., 1 h, FIG. 6

“TrSub (EFGAGKAQCAAAWLQCASGGTLGCGGGAVACQNYRQFQCRAA; the amino acid sequence of the recombinant antimicrobial peptide TrSub)” was tested, and the “hemolytic activity (hemolysis rate)” value (2MIC concentration) was “below 10%” and the “hemolytic activity (hemolysis rate)” value (MIC concentration) was “below 10%”.
